These results are taken from patent US20240317847A1 (Bayer, published 2024).

By IC50 is commonly meant the point on the concentration scale where inhibition reaches its midpoint. Lower therefore signals inhibition by little substance. The term Kd denotes the concentration at which binding is half-saturated. A low value points to tighter binding.

Assay [1] addresses T1, human IL-11 (human, UniProt P20809 22-199).
T1 construct: Invigate recombinant protein; biotinylated when immobilized in the Di-complex ELISA; also called hIL11; hIL-11
T1 sequence: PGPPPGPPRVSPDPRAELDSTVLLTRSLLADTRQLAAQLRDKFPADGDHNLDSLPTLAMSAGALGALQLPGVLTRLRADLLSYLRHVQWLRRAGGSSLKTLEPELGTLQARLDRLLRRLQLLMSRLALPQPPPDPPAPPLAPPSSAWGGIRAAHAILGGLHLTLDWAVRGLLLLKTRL
The experiment in a line: Di-complex ELISA, canine IL11RA-hFc binding to immobilized hIL-11, competition. As to the method:
In the Di-complex ELISA format anti IL-11 antibodies are tested for the ability to interfere with the formation of complexes consisting of immobilized murine IL-11 (Invigate, e.g., lot #C210819-09) or human IL-11 (Invigate, e.g., lot #C121021-19), and murine IL11RA-Fc fusion proteins or canine IL11RA-human-Fc fusion protein (FIG. 17a, b).
Bispecific antibodies were subjected to the experimental assay procedure described in Example 18 and IC50 [M], respectively efficacy (%) were calculated accordingly.
In general terms: An ELISA detects its analyte on a solid surface through an enzyme-linked reagent.

Assay [2] concerns the target T2, human IL-11 (human, UniProt P20809 22-199).
T2 sequence: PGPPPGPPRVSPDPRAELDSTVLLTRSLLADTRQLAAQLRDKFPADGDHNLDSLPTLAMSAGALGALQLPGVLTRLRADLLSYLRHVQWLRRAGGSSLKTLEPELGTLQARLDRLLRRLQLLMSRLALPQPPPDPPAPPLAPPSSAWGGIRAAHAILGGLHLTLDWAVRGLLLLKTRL
The experiment in a line: cell-based or functional assay.

Assay [3] concerns the target T3, murine IL-11 (mouse, UniProt P47873 22-199).
T3 sequence: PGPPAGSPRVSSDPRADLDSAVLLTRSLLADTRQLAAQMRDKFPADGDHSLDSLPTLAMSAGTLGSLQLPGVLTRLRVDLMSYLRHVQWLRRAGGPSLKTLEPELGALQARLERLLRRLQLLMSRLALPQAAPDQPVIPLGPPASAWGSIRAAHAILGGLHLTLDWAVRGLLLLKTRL
The experiment in a line: cell-based or functional assay.

In assay [4] the target is T4, murine IL-11 (mouse, UniProt P47873 22-199).
T4 construct: Invigate recombinant protein; biotinylated when immobilized in the Di-complex ELISA; also called mIL11; mIL-11
T4 sequence: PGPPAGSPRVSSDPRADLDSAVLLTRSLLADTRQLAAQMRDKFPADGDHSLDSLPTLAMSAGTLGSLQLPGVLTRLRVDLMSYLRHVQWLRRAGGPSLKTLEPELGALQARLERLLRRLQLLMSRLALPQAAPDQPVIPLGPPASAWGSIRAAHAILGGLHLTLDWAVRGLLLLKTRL
The experiment in a line: SPR (Biacore), 25 C, antibody captured via anti-Fc, IL-11 as analyte. As to the method: (§1) To assess the binding kinetics and affinity of anti-IL-11 bispecific antibodies as well as their species cross-reactivity profile, binding assays were conducted using surface plasmon resonance (SPR). […] Antibodies were captured either via anti-human Fc IgGs (“Human antibody capture kit”, Order No. BR100839, Cytiva) or via anti-mouse Fc IgGs (“Mouse antibody capture kit, Order No. BR100383, Cytiva) covalently amine coupled to a Series S CM5 sensor chip (Cytiva) depending on the isotype. The amine coupling was carried out according to the manufacturer's instructions using 1-ethyl-3-(3-dimethylaminopropyl) carbodiimide hydrochloride (EDC), N-hydroxysuccinimide (NHS) and ethanolamine HCl, pH 8.5 (“Amine Coupling Kit” BR-1000-50, Cytiva.). Human, mouse, cynomolgus or rat IL-11 was used as analyte at several dilutions within the concentration range from 0.05-200 nM. For binding assays with only one concentration 200 nM IL-11 was used. The sensor surface was regenerated with glycine pH 1.7 after each antigen injection. Obtained sensorgrams were double referenced (subtraction of reference flow cell signal and buffer injection) and were fitted to a 1:1 Langmuir binding model to derive kinetic data using the Biacore T200 Evaluation software or the Biacore Insight software.
(§2) If no value is reported, there was either no binding or very low binding and multiphasic binding behavior.
For orientation: In SPR one partner is held on a chip, and binding of the other changes the refractive index at the surface.

The next assay concerns the target T5, cynomolgus IL-11 (cynomolgus, UniProt P20808 22-199).
T5 construct: Invigate recombinant protein; also called cIL11; Macaca IL-11
T5 sequence: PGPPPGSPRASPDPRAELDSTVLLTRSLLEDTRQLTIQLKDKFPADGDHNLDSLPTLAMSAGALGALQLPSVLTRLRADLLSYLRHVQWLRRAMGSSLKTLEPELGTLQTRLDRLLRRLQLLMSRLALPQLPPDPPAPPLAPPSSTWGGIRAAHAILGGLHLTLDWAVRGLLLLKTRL
The description is as above. As to the method:
as §1, §2

The target of a further assay is T6, rat IL-11 (rat, UniProt Q99MF5 22-199).
T6 construct: Invigate recombinant protein; also called rIL11
T6 sequence: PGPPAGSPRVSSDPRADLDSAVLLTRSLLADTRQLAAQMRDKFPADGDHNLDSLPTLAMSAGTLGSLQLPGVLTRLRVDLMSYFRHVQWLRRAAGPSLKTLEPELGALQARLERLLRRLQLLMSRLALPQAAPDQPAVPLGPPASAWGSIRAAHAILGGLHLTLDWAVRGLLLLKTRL
Described as above. On the procedure:
as §1, §2

The target in assay [5] is T7, murine IL-11 (Invigate, e.g., lot #C210819-09) (mouse, UniProt P47873 22-199).
T7 construct: Bought protein; biotinylated where captured on streptavidin plates; also called mIL-11; mIL11
T7 sequence: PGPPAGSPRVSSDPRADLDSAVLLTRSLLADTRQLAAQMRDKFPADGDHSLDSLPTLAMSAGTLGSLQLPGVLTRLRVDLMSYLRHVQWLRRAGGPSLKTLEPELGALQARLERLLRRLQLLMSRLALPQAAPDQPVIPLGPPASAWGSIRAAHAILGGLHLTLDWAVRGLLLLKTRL
The experiment in a line: SPR, Biacore 8K; antibody captured on anti-human IgG Fc chip, IL-11 analyte 0-50 nM, 1:1 fit. As to the method: (§3) Antibody binding affinity to hIL-11 (Invigate, Germany, e.g., lot #C121021-19) and mIL-11 (Invigate, Germany, e.g., lot #C210819-09) was detected using Biacore 8K. Each antibody was captured on an anti-human IgG Fc antibody immobilized CM5 sensor chip (GE). hIL-11 and mIL-11 at different concentrations (0, 5, 15.82 and 50 nM) in 1×HBS-EP+ (pH 7.4) (GE healthcare) were injected over the sensor chip at a flow rate of 30 μL/min for an association phase of 120 s, followed by 200 s dissociation phase. The chip was then regenerated by 10 mM Glycine, pH 1.5 after each binding cycle.
(§4) The sensorgrams of blank surface and buffer channel were subtracted from the test sensorgrams. The experimental data was fitted by 1:1 model using Langmiur analysis. Molecular weight of 19.3 kDa was used to calculate the molar concentration of human and mouse IL-11.

Assay [6] concerns the target T8, human IL-11 (Invigate, e.g., lot #C121021-19) (human, UniProt P20809 22-199).
T8 construct: Bought protein; also called hIL-11; hIL11
T8 sequence: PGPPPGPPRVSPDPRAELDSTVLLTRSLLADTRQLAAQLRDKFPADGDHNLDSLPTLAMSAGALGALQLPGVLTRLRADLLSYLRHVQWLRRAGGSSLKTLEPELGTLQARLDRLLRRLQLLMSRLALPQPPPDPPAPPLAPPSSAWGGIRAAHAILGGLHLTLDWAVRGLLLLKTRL
Described as above. As to the method:
as §3, §4

B1: TPP-29603 (bispecific antibody, IgG1)
chain 1: QVQLVESGGGVVQPGRSLRLSCAASGFTFSHYDMHWVRQAPGKGLEWVAVISYHGSVKFYADSVKGRFTISRDNSKNTLYLQMNSLRAEDTAVYYCARTPGFHFDYWGQGTLVTVSSGGGGSGGGGSGGGGSQSVLTQPPSASGTPGQRVTISCSGSSSNIGSNYVSWYQQLPGTAPKLLIYYDDLRPSGVPDRFSGSKSGTSASLAISGLRSEDEADYYCSAWDDSLSGVVFGGGTKLTVLGGGGSGGGGSGGGGSGVECPPCPAPPVAGPSVFIFPPKPKDVLTITLTPKVTCVVVDISKDDPEVQFSWFVDDVEVHTAQTQPREEQFNSTFRSVSELPIMHQDWLNGKEFKCRVNSAAFPAPIEKTISKTKGRPKAPQVYTIPPCKEQMAKDKVSLWCMITDFFPEDITVEWQWNGQPAENYKNTQPIMDTDGSYFVYSKLNVQKSNWEAGNTFTCSVLHEGLHNHHTEKSLSHSPGK
chain 2: EVQLLESGGGLVQPGGSLRLSCAASGFTFSSYGMHWVRQAPGKGLEWVAVISYDGSYKYYADSVKGRFTISRDNSKNTLYLQMNSLRAEDTAVYYCAAGVPDYWGQGTLVTVSSGGGGSGGGGSGGGGSQSVLTQPPSASGTPGQRVTISCSGSSSNIGSDYDVHWYQQLPGTAPKLLIYSNEERPSGVPDRFSGSKSGTSASLAISGLRSEDEADYYCSAWDSSLSGPVFGGGTKLTVLGGGGSGGGGSGGGGSGVECPPCPAPPVAGPSVFIFPPKPKDVLTITLTPKVTCVVVDISKDDPEVQFSWFVDDVEVHTAQTQPREEQFNSTFRSVSELPIMHQDWLNGKEFKCRVNSAAFPAPIEKTISKTKGRPKAPQVCTIPPPKEQMAKDKVSLSCAITDFFPEDITVEWQWNGQPAENYKNTQPIMDTDGSYFVVSKLNVQKSNWEAGNTFTCSVLHEGLHNHHTEKSLSHSPGK
notes: scFv-kih-mIgG1; bispecific comprising CDRs of TPP-29528 and TPP-29519
B1 had a half-maximal inhibitory concentration (IC50) in the assay with human IL-11 [1] of 1.7 nM.

B2: TPP-18068 (antibody, mouse IgG1)
heavy: EVQLLESGGGLVQPGGSLRLSCAASGFTFSSYGMHWVRQAPGKGLEWVSVISYDGSYKYYADSVKGRFTISRDNSKNTLYLQMNSLRAEDTAVYYCAAGVPDYWGQGTLVTVSSAKTTPPSVYPLAPGSAAQTNSMVTLGCLVKGYFPEPVTVTWNSGSLSSGVHTFPAVLQSDLYTLSSSVTVPSSTWPSETVTCNVAHPASSTKVDKKIVPRDCGCKPCICTVPEVSSVFIFPPKPKDVLTITLTPKVTCVVVDISKDDPEVQFSWFVDDVEVHTAQTQPREEQFNSTFRSVSELPIMHQDWLNGKEFKCRVNSAAFPAPIEKTISKTKGRPKAPQVYTIPPPKEQMAKDKVSLTCMITDFFPEDITVEWQWNGQPAENYKNTQPIMDTDGSYFVYSKLNVQKSNWEAGNTFTCSVLHEGLHNHHTEKSLSHSPGK
light: QSVLTQPPSASGTPGQRVTISCTGSSSNIGAGYDVHWYQQLPGTAPKLLIYSNNERPSGVPDRFSGSKSGTSASLAISGLRSEDEADYYCAAWDDSLNGPVFGGGTKLTVLGQPKSSPSVTLFPPSSEELETNKATLVCTITDFYPGVVTVDWKVDGTPVTQGMETTQPSKQSNNKYMASSYLTLTARAWERHSSYSCQVTHEGHTVEKSLSRADCS
notes: mIgG1, Lambda
With B2, in the assay with human IL-11 [2], the “RGA Efficacy (%)” value came to 60.3% and the “RGA IC50” value was found to be 6.7 nM. In the assay with murine IL-11 [3], the “RGA Efficacy (%)” value amounted to 93.1% and the “RGA IC50” value came out at 1 nM.

B3: TPP-18068 (antibody, mouse IgG1)
heavy: EVQLLESGGGLVQPGGSLRLSCAASGFTFSSYGMHWVRQAPGKGLEWVSVISYDGSYKYYADSVKGRFTISRDNSKNTLYLQMNSLRAEDTAVYYCAAGVPDYWGQGTLVTVSSAKTTPPSVYPLAPGSAAQTNSMVTLGCLVKGYFPEPVTVTWNSGSLSSGVHTFPAVLQSDLYTLSSSVTVPSSTWPSETVTCNVAHPASSTKVDKKIVPRDCGCKPCICTVPEVSSVFIFPPKPKDVLTITLTPKVTCVVVDISKDDPEVQFSWFVDDVEVHTAQTQPREEQFNSTFRSVSELPIMHQDWLNGKEFKCRVNSAAFPAPIEKTISKTKGRPKAPQVYTIPPPKEQMAKDKVSLTCMITDFFPEDITVEWQWNGQPAENYKNTQPIMDTDGSYFVYSKLNVQKSNWEAGNTFTCSVLHEGLHNHHTEKSLSHSPGK
light: QSVLTQPPSASGTPGQRVTISCTGSSSNIGAGYDVHWYQQLPGTAPKLLIYSNNERPSGVPDRFSGSKSGTSASLAISGLRSEDEADYYCAAWDDSLNGPVFGGGTKLTVLGQPKSSPSVTLFPPSSEELETNKATLVCTITDFYPGVVTVDWKVDGTPVTQGMETTQPSKQSNNKYMASSYLTLTARAWERHSSYSCQVTHEGHTVEKSLSRADCS
notes: mIgG1, Lambda
For B3, the Kd was found to be 0.35 nM with murine IL-11 [4], 3.8 nM with cynomolgus IL-11 and 0.29 nM in the assay with rat IL-11.

B4: TPP-18087 (antibody, mouse IgG1, V domains shown)
VH: EVQLLESGGGLVQPGGSLRLSCAASGFTFSHYDMNWLRQAPGKGLEWVGVISYDGSNKFYADFVKGRFTISRDNSKNTLYLQMNSLRAEDTAVYYCARTPGSHFDYWGQGTLVTVSS
VL: QSVLTQPPSASGTPGQRVTISCSGSSSNIGNNAVNWYQQLPGTAPKLLIYYDDLLPSGVPDRFSGSKSGTSASLAISGLRSEDEADYYCSAWDDSLNGVVFGGGTKLTVLG
notes: mIgG1, Lambda
Regarding B4, the Kd was 12 nM in assay [5] and 5.2 nM in assay [6].
